The source of these data is article PMC12748774 (Nature Communications, 2025).

In experiment [1] the target is ZIKV WT sE (recombinant soluble ectodomain of Zika virus envelope E protein, wild type) (Zika virus, Brazilian strain SPH2015 …, UniProt A0A0U3FSM8). Nature of the experiment: BLI. As to conditions: both partners purified.
Experiment [2] concerns the target T1, ZIKV CC_FLE sE (G5C/G102C), disulfide-linked dimer (Zika virus (Brazilian Zika SPH2015 …)).
T1 construct: source: Drosophila Schneider S2 cells, purified (His-tag column, SEC)
Nature of the experiment: cryo-EM structure. As to conditions: both partners purified.

B1: OZ-D4_GL (germline-reverted OZ-D4, IgG1) (antibody, V domains shown)
VH: QVQLQESGPGLVKPSETLSLTCTVSGGSISSYYWSWIRQPPGKGLEWIGYIYYSGSTNYNPSLKSRVTISVDTSKNQFSLKLSSVTAADTAVYYCARYSSGWSFSFDIWGQGTRVTVSS
VL: QSALTQPASVSGSPGQSITISCTGTSSDVGSYNLVSWYQQHPGKAPKLMIYEGSKRPSGVSNRFSGSKSGNTASLTISGLQAEDEADYYCCSYAGSSTLVFGGGTKLTVL
Turning to B1, the binding result in experiment [1] is “no binding (tested: 250 nM)”.

B2: SMZAb2 Fab (Fab, V domains shown)
VH: EVQLVQSGAEVKKPGSSVKVSCKAPGGTFSSYAMSWVRQAPGQGPEWVGGIVPVYGTSRYAQKFQGRGTITADESTSTVYLELSSLRSEDTALYYCARVRYYGSGTYYGGDAFDFWGQGTMVTVSS
VL: QTVVTQEPSFSVSPGGTVTLTCGLTSDSVSIHLYPSWYQQTPGQAPRALIYNTNTRSSGVPDRFSGSILGNKAALTITGAQADDESVYFCVVYMGSGIWVFGGGTKLTVL
notes: also called Fabs; source: 293F cells, co-transfected, purified (cOmplete His-Tag Purification Resin)
Turning to B2, the stoichiometry N (in general, the number of molecules, sites or subunits per partner or assembly) in experiment [2] was found to be 2.
